Source: US20220412989A1, “COMPOSITIONS AND METHODS FOR DETECTING CELLS UNDERGOING FERROPTOSIS USING AN ANTIBODY” (THE TRUSTEES OF COLUMBIA UNIVERSITY IN THE CITY OF NEW YORK, priority 2020, published 2022)

Legend:
[1] = system: A-673, SK-BR-3, Huh-7 and SK-LMS-1 cells; assay: Immunofluorescence staining in other cancer cell lines; type: cell-based, human; conditions: 1 μM RSL3, 4 h
Description: HT-1080 (ATCC Cat #CRL-7951, RRID:CVCL_0317), A-673, SK-BR-3, SK-LMS-1 and Huh-7 cells were treated with 1 μM RSL3 for 4 h, 15 μM erastin for 8 h, 10 μM IKE for 8 h, 15 μM FINO2 for 8 h, 10 μM FIN56 for 8 h, 100 μM tBuOOH for 8 h, 1 μM staurosporine (STS) for 6 h, 2 μM camptothecin (CPT) for 24 h, 1 μM RSL3+5 μM Fer-1 for 4 h and 10 μM IKE+5 μM Fer-1 for 8 h on poly-lysine-coated cover slips (Sigma Aldrich P4832) in 24-well plate. Media were taken out and the cells were gently washed with PBS^++ (PBS with 1 mM CaCl2) and 0.5 mM MgCl2) twice. The cells were fixed and permeabilized by adding 200 μL/well of 4% paraformaldehyde (PFA) in PBS with 0.1% Triton X-100 (PBT), and incubated at room temperature for 18 min. The cells were then washed with PBT three times. Then the cells were blocked with 5% goat serum (ThermoFisher 50197Z) in PBT for 1 h at room temperature. […] When applicable, line-scan analysis was performed on representative confocal microscopy images using Zeiss LSM software to qualitatively visualize fluorescence overlap.
The quantification of the intensity of antibodies was analyzed using CellProfiler 3.1.8 (Carpenter et al., 2006) (CellProfiler Image Analysis Software, RRID:SCR_007358). […] Then mean intensities and size areas of nuclei, cytoplasm and plasma membranes were then measured and reported. […]

[2] = molecular target: T1, transferrin receptor protein 1 (Homo sapiens, UniProt P02786); assay: siRNA knockdown of TfR1 followed by immunofluorescence; type: cell-based; conditions: HT-1080 cells, siTfR1 vs siNT
T1 construct: First, we incubated 3F3-FMA with a cell lysate overnight; endogenous in cells; host or cells: HT-1080 (ATCC CRL-7951)
Description: 10 μM of siRNAs were combined with 250 μl of Opti-MEM serum-free media (Life Technologies 31985-070) in one tube. 6 μl of Lipofectamine RNAiMAX (Thermo Fisher Scientific 13778150) was combined with 250 μl of Opti-Mem media in another tube. They were equilibrated at r.t. for 5 min. Then two tubes were combined, transferred into 6-well plate and incubated at 37° C. for 20 min. 0.25 million HT-1080 cells were then added to 6-well plate and incubated for 48 h. Cells were reseeded in regular media for additional 24 h. Regular IF procedure was then conducted.

T1 sequence (P02786 whole entry): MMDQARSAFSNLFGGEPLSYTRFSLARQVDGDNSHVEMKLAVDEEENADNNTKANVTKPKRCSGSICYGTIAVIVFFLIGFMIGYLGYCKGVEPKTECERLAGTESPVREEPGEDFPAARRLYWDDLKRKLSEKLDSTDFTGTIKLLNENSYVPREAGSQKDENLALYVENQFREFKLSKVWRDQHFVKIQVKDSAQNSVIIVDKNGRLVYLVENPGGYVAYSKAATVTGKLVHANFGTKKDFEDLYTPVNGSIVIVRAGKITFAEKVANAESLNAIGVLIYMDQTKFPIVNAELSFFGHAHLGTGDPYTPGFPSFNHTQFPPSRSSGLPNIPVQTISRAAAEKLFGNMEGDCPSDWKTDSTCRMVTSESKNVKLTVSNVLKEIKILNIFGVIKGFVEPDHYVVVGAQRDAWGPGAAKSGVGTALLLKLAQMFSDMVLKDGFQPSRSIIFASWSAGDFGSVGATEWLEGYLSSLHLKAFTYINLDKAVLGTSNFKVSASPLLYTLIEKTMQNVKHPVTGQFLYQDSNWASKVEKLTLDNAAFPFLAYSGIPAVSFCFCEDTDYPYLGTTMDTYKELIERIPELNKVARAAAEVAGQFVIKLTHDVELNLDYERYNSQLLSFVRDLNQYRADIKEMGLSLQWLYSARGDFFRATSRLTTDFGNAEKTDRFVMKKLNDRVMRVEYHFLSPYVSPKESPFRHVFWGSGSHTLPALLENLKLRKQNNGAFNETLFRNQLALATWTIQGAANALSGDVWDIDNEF

staining in siTfR1-transfected cells [2]: wasn't any detectable staining
B1: 3F3-FMA: murine monoclonal IgG1 raised against ferroptotic membrane fractions; antigen is human transferrin receptor protein 1 (TfR1) (antibody, V domains shown)
VH: EVLLQQSGTELVRPGALVKLSCKASGFNIQDLYIHWVKQRPEQGLEWIGWIDPETDNTIYDPKFQGKASITADTSSNTAYLQLSSLTSEDTAMYYCSTGLLQWYFDVWGAGTAVTVSS
VL: DIVMTQSPSSLAMSIGQKVTMRCKSSQSLLNSYNQKNCLAWYQQKPGQSPKLLLYFVSTRESGVPDRFIGSGSGTDFTLTISSVQAEDLADYFCQQHYSTPLTFGAGTKLELK
staining upon ferroptosis induction [1]: staining concentrated at the cell boundaries and became brighter
